These results are taken from patent US9988424 (DUKE UNIVERSITY, dated 2018).

Numbering of substitutions follows the chain as printed. Read-outs that look alike come from different tables or passages of the source.

For one experiment, the target named is T1, J08 B.HXB2/BALV1V2 (HIV-1).
T1 construct: also called J08 B.HXB/BAL V1V2
T1 chain: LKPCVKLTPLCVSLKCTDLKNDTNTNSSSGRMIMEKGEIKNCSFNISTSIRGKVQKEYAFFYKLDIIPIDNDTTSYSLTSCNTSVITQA
As to the kind of experiment: ELISA.

In experiment [1] the target is T2, J08 B.HXB2/BALV1V2N156QN160Q (HIV-1).
T2 chain: T1 chain with N41Q, N45Q
The experiment in a line: ELISA.

Experiment [2] concerns the target T3, gp70 B.CaseA2 V1/V2 (HIV-1 V1V2 on murine leukemia virus gp70).
T3 construct: also called B.gp70CaseA2 V1/V2; gp70 B.CaseAV1V2
T3 chain: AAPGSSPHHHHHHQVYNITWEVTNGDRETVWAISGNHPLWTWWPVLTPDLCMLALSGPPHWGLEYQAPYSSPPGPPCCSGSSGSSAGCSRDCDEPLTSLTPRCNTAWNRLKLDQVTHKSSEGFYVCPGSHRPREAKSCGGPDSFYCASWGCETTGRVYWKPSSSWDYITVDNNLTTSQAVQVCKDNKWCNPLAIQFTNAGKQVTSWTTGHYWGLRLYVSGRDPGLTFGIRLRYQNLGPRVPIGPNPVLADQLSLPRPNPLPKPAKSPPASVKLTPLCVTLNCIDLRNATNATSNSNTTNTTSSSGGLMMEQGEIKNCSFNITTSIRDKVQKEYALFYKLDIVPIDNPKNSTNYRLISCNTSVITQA
The experiment in a line: ELISA.

For the next experiment, the target named is T4, gp70 B.HXB2/BALV1V2 (murine leukemia virus; HIV-1).
T4 chain: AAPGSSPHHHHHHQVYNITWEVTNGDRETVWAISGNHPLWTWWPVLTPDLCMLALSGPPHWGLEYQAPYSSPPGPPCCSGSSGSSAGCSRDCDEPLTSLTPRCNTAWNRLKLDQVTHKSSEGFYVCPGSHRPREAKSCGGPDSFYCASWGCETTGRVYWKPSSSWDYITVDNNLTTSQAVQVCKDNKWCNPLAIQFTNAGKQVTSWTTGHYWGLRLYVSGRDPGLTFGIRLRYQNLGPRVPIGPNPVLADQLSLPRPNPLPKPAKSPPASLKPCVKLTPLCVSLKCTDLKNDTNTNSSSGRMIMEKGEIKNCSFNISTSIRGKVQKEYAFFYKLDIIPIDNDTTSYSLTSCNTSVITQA
The experiment in a line: ELISA.

The target in experiment [3] is T5, gp70 B.HXB2/BALV1V2/N156QN160Q (murine leukemia virus; HIV-1).
T5 chain: T4 chain with N311Q, N315Q
As to the kind of experiment: ELISA.

Experiment [4] deals with T3, gp70 B.CaseA2 V1/V2. As to the kind of experiment: ELISA.
The next experiment deals with A.Q23 V1V2 tags (HIV-1). The experiment in a line: ELISA OD405nm, bar chart, antibody concentration not given.
The next experiment concerns the target T6, G.con 140CF.
T6 construct: also called G.con gp140CF; G.con.env03 gp140CF
The experiment is described as above.

Experiment [5] concerns the target C.CAP206 gp140CF.12 (HIV-1). The experiment is described as above.
Another experiment addresses T7, Con 6 120.
T7 construct: also called Con 6 gp120
Described as above.

Experiment [6] deals with T8, AE.97CNG2XF gp140CF (HIV-1).
T8 construct: also called E.97CNGX2F gp140CF
The description is as above.

Another experiment concerns the target T9, AE.con gp140CF.
T9 construct: also called AE.con.env03 gp140CF
As to the kind of experiment: ELISA, OD405.

Experiment [7] has as its target C.CAP206 gp140CF.12 (HIV-1). As to the kind of experiment: ELISA, OD405.
Another experiment concerns the target B. 684-6 gp140C. As to the kind of experiment: ELISA, OD405.
A further experiment deals with B. 681-7 gp140C. As to the kind of experiment: ELISA, OD405.
The target of another experiment is T10, C.1086 gp140.
T10 construct: also called C.1086gp140C
The experiment in a line: ELISA, OD405.

A further experiment deals with T11, G.con gp140CF.
T11 construct: also called G.con.env03 gp140CF
As to the kind of experiment: ELISA, OD405.

The next experiment has as its target Con 6 gp120. As to the kind of experiment: ELISA, OD405.
In the next experiment the target is B.9021 gp140C (HIV-1). As to the kind of experiment: ELISA, OD405.
A further experiment deals with B.040 gp140C. The experiment in a line: ELISA, OD405.
A further experiment concerns the target T12, B.con gp140CF.
T12 construct: also called B.con.env03 gp140CF
As to the kind of experiment: ELISA, OD405.

For experiment [8], the target named is T8, AE.97CNG2XF gp140CF. The experiment in a line: ELISA, OD405.
The target of a further experiment is T13, B.62357 140C.
T13 construct: also called B.62357 gp140C
As to the kind of experiment: ELISA, OD405.

In the next experiment the target is B.63521 gp140C. The experiment in a line: ELISA, OD405.

B1: 697D (antibody, V domains shown)
VH: QVQLVQSGAEVKKPGSSVKVSCKASGGNFNTYTISWVRQAPGQGLEWMGRIIPIFGIVNPAQKFPGRVTINVDKSTNTAYMELSSLRSEDTAVYYCATSGVGLHFGYFDYWGQGTQVTVSS
VL: QSVLTQPPSVSGAPGQRVTISCTGSSSNIGAHYDVHWYQQLPGTAPKLLIYGNSNRPSGVPDRFSGSKSGTSASLAITGLQAEDEADYYCQSYDSSLSGYVFGTGTKVTVL
notes: also called mAb 697D; V2 conformational mAb 697D
Take B1: the half-maximal effective concentration (EC50) in the experiment with J08 B.HXB2/BALV1V2 was 0.12 nM; in [1], 66 nM; with gp70 B.CaseA2 V1/V2 [2] it was 0.05 nM; with gp70 B.HXB2/BALV1V2, 0.64 nM; in [3], above 667 nM; with gp70 B.CaseA2 V1/V2 [4], 0.04 µg/mL.

B2: CH59 reverted unmutated ancestor antibody (antibody, V domains shown)
VH: EVQLVESGGGLVQPGRSLRLSCAASGFTFDDYAMHWVRQAPGKGLEWVSGISWNSGSIGYADSVKGRFTISRDNAKNSLYLQMNSLRAEDTALYYCAKDSPRGELPFDYWGQGTLVTVSS
VL: SYELTQPPSVSVSPGQTARITCSGDALPKKYAYWYQQKSGQAPVLVIYEDSKRPSGIPERFSGSSSGTMATLTISGAQVEDEADYYCYSTDSSGNHRVFGGGTKLTVL
notes: also called CH59 RUA; CH59_RUA
In the case of B2, the binding result with A.Q23 V1V2 tags, with G.con 140CF, with C.CAP206 gp140CF.12 [5], in the experiment with Con 6 120 and in the experiment with AE.97CNG2XF gp140CF [6] was “no binding (tested: not given)” throughout.

B3: CH58 reverted unmutated ancestor antibody (antibody, V domains shown)
VH: EVQLVQSGAEVKKPGESLKISCKGSGYSFTSYWIGWVRQMPGKGLEWMGIIYPGDSDTRYSPSFQGQVTISADKSISTAYLQWSSLKASDTAMYYCARLGGRYYYDSSGYYYFDYWGQGTLVTVSS
VL: NFMLTQPHSVSESPGKTVTISCTRSSGSIASNYVQWYQQRPGSSPTTVIYEDNQRPSGVPDRFSGSIDSSSNSASLTISGLKTEDEADYYCQSYDSSSWVFGGGTKLTVL
notes: also called CH58 RUA; CH58_RUA
On to B3, for which the binding result in the experiment with AE.con gp140CF, in the experiment with C.CAP206 gp140CF.12 [7], in the experiment with B. 684-6 gp140C, with B. 681-7 gp140C, with C.1086 gp140 and with G.con gp140CF was “no binding (tested: 10 ug/ml)” throughout. Further, the binding result with Con 6 gp120, in the experiment with B.9021 gp140C, in the experiment with B.040 gp140C, with B.con gp140CF, in the experiment with AE.97CNG2XF gp140CF [8] and with B.62357 140C was “no binding (tested: 10 ug/ml)” each time. In the experiment with B.63521 gp140C, the binding result is listed as “no binding (tested: 10 ug/ml)”.
